From paper PMC13635753, “Mechanism of NanR transcriptional activation of sialic acid metabolism in Streptococcus pneumoniae” (Nucleic Acids Research, 2025)
Positions count from the first letter of the chain named. Names and notes keep the numbering of the source. Values joined by “and” are separate entries in the source; they are usually repeats but may differ in a detail not shown here. Equal entries are not always repeated.

What was measured:
[1] = target: the molecule itself; assay: SAXS with in-line size exclusion chromatography; SpNanR without N-acetylmannosamine-6-phosphate
[2] = target: the molecule itself; assay: AUC; sedimentation velocity, SpNanR 0.27–153.5 μM with 2 mM N-acetylmannosamine-6-phosphate, 20 mM Tris–HCl pH 8.0, 300 mM NaCl, 20°C, 42 000 rpm; constant of: tetramer to dimers
[3] = target: the molecule itself; assay: AUC; sedimentation velocity, SpNanR 4.3–227.7 μM without N-acetylmannosamine-6-phosphate, 20 mM Tris–HCl pH 8.0, 300 mM NaCl, 20°C, 42 000 rpm; weight-averaged s fitted to a dimer–tetramer self-association model; constant of: tetramer to dimers
[4] = target: the molecule itself; assay: AUC; sedimentation velocity of SpNanR variants and wild type at 15 μM, without N-acetylmannosamine-6-phosphate
[5] = target: the molecule itself; assay: AUC; sedimentation velocity of SpNanR variants and wild type at 15 μM, with N-acetylmannosamine-6-phosphate
[6] = target: T1, SpNanR (Streptococcus pneumoniae, UniProt A0A0H2ZPE9 1-283); assay: fluorescence-detection AUC (sedimentation velocity); no effector; Hill n 2.3; MST: 20 mM Tris-HCl pH 8.0, 300 mM NaCl, 0.05% Tween-20, 20 C, 20 nM FAM-DNA; AUC: 50 nM FAM-DNA, 0.019-5 uM SpNanR, buffer not in the material; conditions: protein: recombinant; tags: none; chain copies: 2; label: 5'-FAM on sense strand
[7] = target: SpNanR T18A (Streptococcus pneumoniae, UniProt A0A0H2ZPE9 1-283, T18A); assay: MST; protein up to 5000 nM; MST: 20 mM Tris-HCl pH 8.0, 300 mM NaCl, 0.05% Tween-20, 20 C, 20 nM FAM-DNA; AUC: 50 nM FAM-DNA, 0.019-5 uM SpNanR, buffer not in the material; conditions: protein: recombinant; tags: none; chain copies: 2; label: 5'-FAM on sense strand
[8] = target: SpNanR R67A (Streptococcus pneumoniae, UniProt A0A0H2ZPE9 1-283, R67A); assay: as above; conditions: protein: recombinant; tags: none; chain copies: 2; label: 5'-FAM on sense strand
[9] = target: SpNanR R56A (Streptococcus pneumoniae, UniProt A0A0H2ZPE9 1-283, R56A); assay: as above; conditions: protein: recombinant; tags: none; chain copies: 2; label: 5'-FAM on sense strand
[10] = target: T1, SpNanR; assay: MST; range over three sites; MST: 20 mM Tris-HCl pH 8.0, 300 mM NaCl, 0.05% Tween-20, 20 C, 20 nM FAM-DNA; AUC: 50 nM FAM-DNA, 0.019-5 uM SpNanR, buffer not in the material; conditions: protein: recombinant; tags: none; chain copies: 2; label: 5'-FAM on sense strand
[11] = target: T1, SpNanR; assay: MST; protein up to 5000 nM; MST: 20 mM Tris-HCl pH 8.0, 300 mM NaCl, 0.05% Tween-20, 20 C, 20 nM FAM-DNA; AUC: 50 nM FAM-DNA, 0.019-5 uM SpNanR, buffer not in the material; conditions: protein: recombinant; tags: none; chain copies: 2; label: 5'-FAM on sense strand

B1: Streptococcus pneumoniae NanR (SpNanR), wild type (natural protein, UniProt A0A0H2ZPE9 1-283, looked up)
chain: MDKPDIATIIDSHFEEMTDLEQEIARYFLQAETITDDLSSQQVTQKLHISQAALTRFAKKCGFTGYREFIFQYQHQAENQANQVSKHSPLTKRVLRSYSNMREQTQDLIDEIQLERIAQLIEDAERIYFFGTGSSGLVAREMKLRFMRLGVVCEALTDQDGFAWTTSIMDENCLVLGFSLSGSTPSILDSLLDAKEMGAKTVLFTSVPNKNSQTYTETVLVATHSQPSYIQRISAQLPMLFFIDLIYAYFLEINRESKEKIFNSYWENKKLNGYRRQKRVRKS
notes: RpiR family transcriptional regulator NanR of Streptococcus pneumoniae, recombinant full length; intact mass 32 611 Da; Self-associates between dimer and tetramer; cloned into pET30ΔSE; no tag; also called SpNanR^WT; apo-SpNanR
[1]
  stoichiometry N: 4 and 2
[2]
  Kd: < 200 nM
[3]
  Kd: 97000 nM

B2: SpNanR^D160A (natural protein)
chain: B1 chain with D160A
notes: NanR of Streptococcus pneumoniae with D160A; Variant of the full-length recombinant SpNanR; source: E. coli BL21(DE3), recombinant
[4]
  stoichiometry N: 2
[5]
  stoichiometry N: 4

B3: SpNanR^R148A (natural protein)
chain: B1 chain with R148A
notes: NanR of Streptococcus pneumoniae with R148A; Variant of the full-length recombinant SpNanR; source: E. coli BL21(DE3), recombinant
[4]
  stoichiometry N: 2

B4: nanE recognition sequence (site 2), FAM (dsDNA)
DNA 1: TCTGAAAGTACTTTTAGA
DNA 2: TCTAAAAGTACTTTCAGA
[6]
  Kd: 476 ± 75 nM
[7]
  binding result: no binding
[8]
  binding result: no binding
[9]
  binding result: no binding
[10]
  Kd: ~603 nM

B5: nanE G4T (dsDNA)
DNA 1: TCTTAAAGTACTTTTAGA
DNA 2: TCTAAAAGTACTTTAAGA
[11]
  binding result: no binding

B6: nanE A10C (dsDNA)
DNA 1: TCTGAAAGTCCTTTTAGA
DNA 2: TCTAAAAGGACTTTCAGA
[11]
  binding result: no binding

B7: nanA recognition sequence (site 1) (dsDNA)
DNA 1: TCTGAAACTACTTTCAAA
DNA 2: TTTGAAAGTAGTTTCAGA
[10]
  Kd: ~603 nM

B8: cryptic site downstream of siaA operon (site 4) (dsDNA)
DNA 1: TCTGAAACTACTTTCAGA
DNA 2: TCTGAAAGTAGTTTCAGA
[10]
  Kd: ~603 nM
